The values below come from the nanobody polyreactivity screen of Harvey et al. (2022).

The nature of the data set: yeast display, Sf9 membrane polyspecificity reagent, FACS + sequencing; frameworks hold sequencing errors. A digest of the protocol: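 Synthetic nanobody libraries on Saccharomyces cerevisiae BJ5465 were galactose-induced for 36–48 hours, stained 1 hour at 4 °C with 10% biotinylated, detergent-solubilized Sf9 membrane reagent and enriched on streptavidin microbeads. FACS then separated cells into low and high (top ~1%) gates by anti-HA (expression) and streptavidin (reagent binding) fluorescence. Genes were colony-PCR amplified, MiSeq 2 × 250 sequenced and CDR-length filtered. A clone's polyreactivity label is that of its gate of origin.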
Turning to “QVQLVESGGGLVQAGGSLRLSCAASGSTYRPYAMGWYRQAPGKERELVAAITGSGGSTYYADSVKGRFTISRDNAKITDYLQMNSLKPEDTAVYYCNAVSTWRYYYWGQGTQVTVSS”, the “polyreactivity (PSR sort gate)” value is reported as “high polyreactivity”.
Under “QVQLVESGGGVFQAGGSLRLSCAASGSIYAFNPMGWYRQAPGKETEFVASIRSSTGRTYYADSVKGRFTISRDNAKNTVYLQMNSLKPEDTAVYYCAADSPEKPPRRWYITWPDGYWGQGTQVTVSS” stands “low polyreactivity”; under “QVQLVESGGGLVQAGGSLRLSCAASGGTFYRNAMGWYRQAPGKERELVAAITKRGGSTYYADSVKGRFTISRDNAKNTVYIQINSLKPEDTAVYYCAKDAAPIPGNDSDYWGQGTQVTVSS”, “high polyreactivity”; under “QVQLVESGGGLVQAGGSLRLSCAASGRIFAIYAMGWYRQAPGKERELVAGITYSAGSTYYADSVKGRFTISRDNAKNTVYLQMNSLKREDTAVYYCAALEYTSHRYGYDYWGQGTQVTVSS”, “low polyreactivity”.
“QVQLVESGGGLVQAGGSLRLSCAASGIIFSPNAMGWYRQAPGKERELVAGISSGGSTYYADSVKGRFTLSRDNAKNTVYLQMNSLKPEDTAVYYCAVRSRIFGSWYGYGYWGQGTQVTVSS”: the “polyreactivity (PSR sort gate)” value is reported as “high polyreactivity”.
Under “QVQLVESGGRLVQAGGSLRLSCAASGFTFARYAMGWYRQAPGKERELVARISSDGGGTDYADSVKGRFTISRDNAKNTVYLQMNSLKPEDTAVYYCYADPYSRFWGPDYGYWGQGTQVTVSS” stands “low polyreactivity”; under “QVQLVESGGGLVQAGGSLRLSFAASGLIFGYYTMGWYTQAPGKERELVAAITGIADSTYYADSVKGRFTISRDNAKNTVYLQMNSLKPEDTAVYYCAADKYVAEYDYWGQGTQVTVSS”, “low polyreactivity”.
Turning to “QVQLVETGGGLVQAGGSLRLSCAASGRTFAYYAMGWYRQAPGKERELVAAISSGGRTNYADSVKGLFTISRDNAKNTVYLQMNSLKPEDTAVYYCAAVRWVYPRRYYYWGQGTQVTVSS”, the “polyreactivity (PSR sort gate)” value is “high polyreactivity”.
With “QVQLVESGGGLVQAGGSLRLSCAASGSILYYNAMGWYRQAPGKEREFVAAISDSGSSTYYADSVKGRFTITRDNAKNTVYLQMNSLKPEDTAVYYCNTEIYVDIISDYGYWGQGTQVTVSS”, the “polyreactivity (PSR sort gate)” value is “low polyreactivity”.
The entry for “QVQLVESGGGLVQAGGSLRLSCAASGFTNAMGWYRQAPGKERELVAAISYSGDSTNYADSVKGRFTISRDNAKNTVYLQINSVKPEDTAVYYCNASSPYDYDWGQGTHVTVSS” is “low polyreactivity”; for “QVQLVESGGGLVQAGGSLRLSCAASGFIFPRYAKGWYRQAPGKERELVAAISKSGGRTYYADSEKGGFTISRDYAKNTFYLQMNSLKPEDTAVYYCADGRISRFSRYYYWGQGTHVTVSS” it is “high polyreactivity”.
Under “QVQLVESGGGLVQAGGSLRLSCAASGRIFYYYAMGWYRQAPGKERELVADITSGGSTNYADSVKGRFTISRDNAKNTVYLQMNSLKPEDTAVYYCAAEYGDVYVWTYDYWGQGTQVTVSS” stands “high polyreactivity”.
The entry for “QVQLQESGDGLVQAGGSLRLSSAASGTIFSDYGMGGYRQAPGKERELLAGISDGCNTNYTDSVKGRFTISRDNAHRVSADEQPETGGYRGVLLRGSERWLLFYVYWGQGTQVTVSS” is “high polyreactivity”.
For the sequence “QVQLVESGGGLVQAGGSLRLSCAASGRTFYLYGMGWYRQAPGKERELVAAITITDSTNYADSVKGRFTISRDNAKNTVYLQMNSLKPEDTAVYYCAKRRYYSTPRWGSSTYDYWGQGTQVTVSS”, the “polyreactivity (PSR sort gate)” value was “low polyreactivity”.
With “QVQLVESGGGLVQAGGSLRLSCAASGRIFTYYGMGWYRQARGKERELVAAISSSGDSTFYADSVKGRFTISRDNGKNTVYLQMNSLKPEDTAVYYCAADYYYVWYDYWGQGTQVTVSS”, the “polyreactivity (PSR sort gate)” value is listed as “low polyreactivity”.
The entry for “QVQLIESGGGLVQAGGSLRLSCAASGSSLYYYALGWYRQAPGKEREWVAAISSSDGRTYYADSVKGRFTISRDNAKNTVYVQMNSLKPEDTAVYYCNAAVYAHRYIYGFDYWGQGTQVTVSS” is “high polyreactivity”.
